Laboratory results as given in patent US11760795B2, “Monoclonal antibodies to growth and differentiation factor 15 (GDF-15), and uses thereof for treating cancer cachexia and cancer” (JULIUS-MAXIMILIANS-UNIVERSITÄT WÜRZBURG, priority 2014, dated 2023).
Positions count from the first letter of the chain named.

How the values were obtained:
[1] = target: T1, recombinant mature human GDF-15 protein (Homo sapiens, UniProt Q99988); test: Surface plasmon resonance binding to immobilized recombinant mature human GDF-15 (insect cell derived); conditions: GDF-15 derived from insect cell expression; 25° C.; 1:1 Langmuir-type interaction
T1 construct: made in house; host or cells: Baculovirus-transfected HighFive insect cells
T1 sequence (Q99988 with tags, fused parts or gaps): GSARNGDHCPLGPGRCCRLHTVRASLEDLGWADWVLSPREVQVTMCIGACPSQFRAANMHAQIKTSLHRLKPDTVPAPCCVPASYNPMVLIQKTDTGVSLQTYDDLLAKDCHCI
Procedure: Binding of monoclonal anti-human-GDF-15 antibodies according to the invention is generally assessed by employing surface plasmon resonance measurements using a Bio-Rad® ProteOn™ XPR36 system and Bio-Rad® GLC sensor chips as described for murine anti-human GDF-15 mAb-B1-23 in Example 1.
Binding of the monoclonal anti-human-GDF-15 antibody anti-human GDF-15 mAb-B1-23 was measured by employing surface plasmon resonance measurements using a Bio-Rad® ProteOn™ XPR36 system and Bio-Rad® GLC sensor chips:
For preparing the biosensors recombinant mature human GDF-15 protein was immobilized on flow cells 1 and 2. On one flow cell recombinant GDF-15 derived from Baculvirus-transfected insect cells (HighFive insect cells) and on the other recombinant protein derived from expression in E. coli was used. […] The resulting sensogram was analyzed using the software ProteOn Manager version 3.0. […] For the association rate constant a value of 5.4±0.06×10^5 M^−1s^−1 (kon) and for the dissociation rate constant a value of 4.3±0.03×10^−4 s^−1 (koff) could be determined (values are for the interaction of anti-human GDF-15 mAb-B1-23 with GDF-15 derived from insect cell expression).

[2] = Study No. 140123: feed consumption of UACC-257 inoculated mice; type: in vivo, Balb/c^nu/nu mice
Procedure: Treatment of cancer-induced weight loss with anti-GDF-15 antibodies. In the underlying animal study No. 140123, 10 Balb/c^nu/nu mice per treatment group were subcutaneously inoculated with 10×10^6 UACC-257 cells per animal in a 1:1 volume ratio with matrigel (100 μl cells+100 μl matrigel). The animals were treated on the same day with the respective antibodies, as indicated below:
In addition to evaluating the mean body weight of the mice, the feed consumption of the mice was evaluated by pairwise comparisons of the study groups (Table 1).

[3] = Aggregation study: shaking 48 hours at room temperature, visual analysis for precipitates; type: physicochemical; conditions: PBS, no stabilizing proteins for H1L5
Procedure: In order to test the aggregation properties of anti-GDF-15 antibodies, antibody samples were shaken for 48 hours at room temperature in microcentrifuge tubes, and subsequently, the tubes were visually analyzed for aggregated antibody precipitates.

[4] = system: 13 mer linear peptides derived from GDF-15; test: Epitope mapping on peptide array of 13 mer linear peptides derived from GDF-15; type: binding, human; conditions: antibody dilution 1:100, overnight at 4° C.
Procedure: Epitope Mapping: Monoclonal mouse antibody GDF-15 against 13 mer linear peptides derived from GDF-15
The protein sequence was translated into 13 mer peptides with a shift of one amino acid. The C- and N-termini were elongated by a neutral GSGS linker to avoid truncated peptides (bold letters).
Primary sample: Monoclonal mouse antibody GDF-15 (1 μg/μl):
Staining in incubation buffer for 16 h at 4° C. at a dilution of 1:100 and slight shaking at 500 rpm
Secondary antibody: Goat anti-mouse IgG (H+L) IRDye680, staining in incubation buffer with a dilution of 1:5000 for 30 min at room temperature (RT)
After pre-swelling for 10 min in standard buffer, the peptide microarray was incubated overnight at 4° C. with monoclonal mouse antibody GDF-15 at a dilution of 1:100. Repeated washing in standard buffer (2×1 min) was followed by incubation for 30 min with the secondary antibody at a dilution of 1:5000 at room temperature. After 2×10 sec. washing in standard buffer and short rinsing with dist. water, the PEPperCHIP® was dried in a stream of air. Read-out was done with Odyssey® Imaging System at a resolution of 21 μm and green/red intensities of 7/7 before and after staining of control peptides by anti-HA and anti-FLAG(M2) antibodies.

[5] = target: T2, recombinant mature human GDF-15 protein derived from expression in E. coli (Homo sapiens, UniProt Q99988); test: Surface plasmon resonance binding to recombinant GDF-15 derived from E. coli expression; conditions: SPR
T2 construct: recombinant mature human GDF-15 protein was immobilized on flow cells 1 and 2; made in house; host or cells: E. coli
T2 sequence (Q99988 195-308): T1 sequence (Q99988 with tags, fused parts or gaps) with G1A, S2R
Description: For preparing the biosensors recombinant mature human GDF-15 protein was immobilized on flow cells 1 and 2. On one flow cell recombinant GDF-15 derived from Baculvirus-transfected insect cells (HighFive insect cells) and on the other recombinant protein derived from expression in E. coli was used. The GLC sensor chip was activated using Sulfo-NHS (N-Hydroxysulfosuccinimide) and EDC (1-Ethyl-3-[3-dimethylaminopropyl]carbodiimide hydrochloride) (Bio-Rad® ProteOn™ Amine Coupling Kit) according to the manufacturer's recommendation, the sensor surface was subsequently loaded with the proteins up to a density of about 600RU (1Ru=1 pg mm^−2). The non-reacted coupling groups were then quenched by perfusion with 1M ethanolamine pH 8.5 and the biosensor was equilibrated by perfusing the chip with running buffer ([…], 150 mM NaCl, 3.4 mM EDTA, 0.005% Tween® 20, pH 7.4, referred to as HBS150). […] The resulting sensogram was analyzed using the software ProteOn Manager version 3.0. […] For the association rate constant a value of 5.4±0.06×10^5 M^−1s^−1 (kon) and for the dissociation rate constant a value of 4.3±0.03×10^−4 s^−1 (koff) could be determined (values are for the interaction of anti-human GDF-15 mAb-B1-23 with GDF-15 derived from insect cell expression).

B1: mAb-B1-23: murine IgG2a (kappa) monoclonal anti-human GDF-15 antibody produced by hybridoma cell line B1-23, DSM ACC3142 (antibody, V domains shown)
VH: QVKLQQSGPGILQSSQTLSLTCSFSGFSLSTSGMGVSWIRQPSGKGLEWLAHIYWDDDKRYNPTLKSRLTISKDPSRNQVFLKITSVDTADTATYYCARSSYGAMDYWGQGTSVTVSS
VL: DIVLTQSPKFMSTSVGDRVSVTCKASQNVGTNVAWFLQKPGQSPKALIYSASYRYSGVPDRFTGSGSGTDFTLTISNVQSEDLAEYFCQQYNNFPYTFGGGTKLEIKRTVA
association rate constant (kon) [1]: 5.4±0.06×10^5 M^−1s^−1 | dissociation rate constant (koff) [1]: 4.3±0.03×10^−4 s^−1 | Feed consumption per mouse and day ([2]; average over day 17-34 intervals, with standard deviation): 3.6 ± 0.2 g | feed consumption compared with groups which did not receive the anti-GDF-15 antibodies ([2]; mouse, in vivo): significantly higher | tendency to aggregate [3]: can form aggregates | interaction with linear 13 mer peptides derived from GDF-15 [4]: none of the linear 13 mer peptides derived from GDF-15 interacted | deviation of rate constants, GDF-15 from insect cells vs E. coli [5]: about 45%
